According to US7425614B2, “Neuroprotective therapeutics preventing ERK/MAPK activation through the NMDA receptor” (Children's Medical Center Corporation, priority 2003, dated 2008):

How the values were obtained:
[1] = target: T1, NR2B/RasGRF1 native complex (Rattus norvegicus, UniProt P28818+Q00960); test: competition co-immunoprecipitation of native NR2B-RasGRF1 complexes from rat brain microsomes; assay type: binding; settings: NusA fusion proteins 3-5 μM; 6- to 8-week-old rat brains
T1 construct: from tissue; host or cells: P2 microsomes of 6- to 8-week-old rat brain
T1 sequence (Q00960 27-1482): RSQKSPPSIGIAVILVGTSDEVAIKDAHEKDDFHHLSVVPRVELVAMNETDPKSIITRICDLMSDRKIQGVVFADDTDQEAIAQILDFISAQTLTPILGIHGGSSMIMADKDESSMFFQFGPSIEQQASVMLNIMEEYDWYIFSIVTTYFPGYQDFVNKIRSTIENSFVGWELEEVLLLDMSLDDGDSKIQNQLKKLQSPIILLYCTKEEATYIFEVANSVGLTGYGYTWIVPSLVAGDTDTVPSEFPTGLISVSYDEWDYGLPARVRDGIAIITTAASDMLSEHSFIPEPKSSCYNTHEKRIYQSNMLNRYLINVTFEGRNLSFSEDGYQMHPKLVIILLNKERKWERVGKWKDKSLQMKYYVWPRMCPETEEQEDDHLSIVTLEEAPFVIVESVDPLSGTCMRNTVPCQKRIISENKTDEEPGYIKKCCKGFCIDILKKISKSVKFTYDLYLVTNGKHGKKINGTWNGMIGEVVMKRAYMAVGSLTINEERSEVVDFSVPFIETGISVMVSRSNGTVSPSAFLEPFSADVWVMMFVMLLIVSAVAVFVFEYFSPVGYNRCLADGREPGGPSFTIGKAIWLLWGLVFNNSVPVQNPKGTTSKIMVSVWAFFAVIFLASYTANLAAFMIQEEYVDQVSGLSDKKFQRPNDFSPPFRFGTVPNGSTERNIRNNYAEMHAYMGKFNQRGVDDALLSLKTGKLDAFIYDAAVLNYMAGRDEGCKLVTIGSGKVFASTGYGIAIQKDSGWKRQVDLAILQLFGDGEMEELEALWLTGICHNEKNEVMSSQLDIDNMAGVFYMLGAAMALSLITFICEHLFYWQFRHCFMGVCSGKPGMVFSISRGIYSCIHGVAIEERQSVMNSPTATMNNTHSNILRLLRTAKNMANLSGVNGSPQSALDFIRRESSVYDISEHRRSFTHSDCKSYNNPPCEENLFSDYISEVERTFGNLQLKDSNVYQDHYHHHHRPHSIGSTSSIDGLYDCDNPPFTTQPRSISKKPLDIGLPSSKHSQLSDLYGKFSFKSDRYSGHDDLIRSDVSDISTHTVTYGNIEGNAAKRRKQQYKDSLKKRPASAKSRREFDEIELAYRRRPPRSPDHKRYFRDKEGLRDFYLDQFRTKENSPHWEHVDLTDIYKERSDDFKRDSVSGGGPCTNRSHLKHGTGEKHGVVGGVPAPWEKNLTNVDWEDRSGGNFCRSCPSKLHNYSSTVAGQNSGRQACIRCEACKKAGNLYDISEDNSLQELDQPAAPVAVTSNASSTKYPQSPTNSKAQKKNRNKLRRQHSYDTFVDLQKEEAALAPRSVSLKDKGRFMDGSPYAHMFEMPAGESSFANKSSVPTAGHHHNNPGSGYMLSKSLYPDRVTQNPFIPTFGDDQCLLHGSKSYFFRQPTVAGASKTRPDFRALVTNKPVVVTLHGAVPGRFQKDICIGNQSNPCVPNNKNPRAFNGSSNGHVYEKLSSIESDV
T1 sequence (P28818 whole entry, the tested form may be a part): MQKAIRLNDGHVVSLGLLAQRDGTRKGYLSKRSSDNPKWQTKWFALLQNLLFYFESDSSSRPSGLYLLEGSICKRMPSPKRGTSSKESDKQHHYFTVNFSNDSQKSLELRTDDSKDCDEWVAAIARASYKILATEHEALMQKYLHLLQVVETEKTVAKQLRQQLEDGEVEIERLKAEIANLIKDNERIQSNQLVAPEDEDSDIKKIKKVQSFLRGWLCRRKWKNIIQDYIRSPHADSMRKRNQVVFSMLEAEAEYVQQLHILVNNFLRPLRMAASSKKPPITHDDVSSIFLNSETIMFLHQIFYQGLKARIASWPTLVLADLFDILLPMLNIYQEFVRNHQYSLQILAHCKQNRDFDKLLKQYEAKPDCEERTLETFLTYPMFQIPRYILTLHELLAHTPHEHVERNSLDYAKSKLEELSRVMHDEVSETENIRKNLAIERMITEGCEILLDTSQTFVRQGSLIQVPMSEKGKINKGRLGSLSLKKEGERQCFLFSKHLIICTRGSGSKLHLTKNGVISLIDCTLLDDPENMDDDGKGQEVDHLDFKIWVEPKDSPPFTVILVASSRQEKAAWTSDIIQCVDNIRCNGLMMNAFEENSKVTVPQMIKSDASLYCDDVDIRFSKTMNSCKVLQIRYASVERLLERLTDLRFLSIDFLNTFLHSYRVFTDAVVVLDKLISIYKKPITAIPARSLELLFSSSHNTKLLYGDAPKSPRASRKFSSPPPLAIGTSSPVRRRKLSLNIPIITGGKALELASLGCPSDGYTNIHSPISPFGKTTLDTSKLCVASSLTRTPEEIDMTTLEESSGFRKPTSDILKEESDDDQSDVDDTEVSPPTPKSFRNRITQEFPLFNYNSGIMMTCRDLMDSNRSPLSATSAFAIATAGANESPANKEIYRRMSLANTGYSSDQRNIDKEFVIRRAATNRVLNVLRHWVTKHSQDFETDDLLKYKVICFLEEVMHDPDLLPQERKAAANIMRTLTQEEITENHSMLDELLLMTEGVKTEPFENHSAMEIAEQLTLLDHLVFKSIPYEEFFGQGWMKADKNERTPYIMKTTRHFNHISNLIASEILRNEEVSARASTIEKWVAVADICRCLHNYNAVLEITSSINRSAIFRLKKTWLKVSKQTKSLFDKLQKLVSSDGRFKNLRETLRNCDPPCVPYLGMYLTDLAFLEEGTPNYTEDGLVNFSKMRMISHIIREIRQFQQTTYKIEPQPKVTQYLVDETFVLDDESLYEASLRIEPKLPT
Protocol: Transfected cells were solubilized in lysis buffer (100 mM Tris-Cl [pH 8.5], 500 mM NaCl, 1% Triton X-100) supplemented with corn plete protease inhibitor (Roche) and immunoprecipitated with NR2B (Santa Cruz, sc-9057), NR1, or NR2A (Chemicon) antibody (5 μg/ml), washed with lysis buffer, separated on SDS gel, and blotted on PVDF. Blots were probed with anti-RasGRF1 (Santa Cruz) and the appropriate NR subunit antibody. 6- to 8-week-old rat brain P2 microsomes were isolated and solubilized as described (Luo, J., et al. (1997) Mol. Pharmacol. 51, 79-86). 80 μg of solubilized protein were immunoprecipitated with NR2B, RasGRF1, or pooled rabbit IgG, and immunoprecipitated proteins were probed on Western blot with RasGRF1 and NR2B antibodies. All immunoprecipitation experiments were only taken as valid if repeated 3-5 times with similar results. Routine negative controls with antigen pre-absorption were carried out for antibodies used in immunoprecipitation experiments. […]
For in vitro binding experiments, equimolar amounts of in vitro translated ^35S-labeled proteins (calculated from radioactivity of the excised protein band and cysteine content in the specific fragment) were incubated with a 3-fold molar excess of translated RasGRF1 for 30 min at 30° C., diluted with RIPA buffer, and immunoprecipitated with anti-HA-agarose (Santa Cruz). […]

[2] = tested on: ERK; test: phospho-ERK immunocytochemistry in cultured hippocampal neurons; assay type: cell-based, rat; settings: cultured hippocampal neurons
Protocol: Neurons from 18 day rat embryos were dissociated using trypsin and plated on coverslips coated with poly-L-ysine in minimal essential medium (MEM) with 10% NU serum (BD Biosciences, Le Pont de Claix, France) at densities of 30,000 cells/cm^2 as described (Brewer, G. J. (1995) J. Neurosci. Res. 42, 674-683). On days 7 and 11 of culture incubation, half of the medium was changed to MEM with 2% B27 supplement (Invitrogen).
Cells were transfected with cDNA for EGFP fusion proteins (LipofectAMINE 2000; Invitrogen) or by pseudoviral infection using a Sindbis expression system (Invitrogen). Neurons were incubated with cDNA and LipofectAMINE for 2 hr, rinsed, and incubated with culture media (MEM with 2% of B27 supplement) 17 hr prior to the experiment. For viral delivery, neuronal cultures were incubated 30 min with pseudoviral constructs diluted 200-500× in culture media. Cultures were rinsed and incubated in media for 15 hr. 0.1% to 1.5% of neurons were fluorescent after expressing LipofectAMINE-delivered constructs while Sindbis infection yielded 1%-10% transfection efficiency. Most of the experiments were performed on 12-14 days in vitro (div) cultures unless otherwise indicated.
Three hours before stimulation, TTX (1 μM), CNQX (40 μM), APV (100 μM), and nimodipine (5 μM) were added to neurons. For stimulation, coverslips with neurons were transferred into the following solutions.
(1) 100 μM NMDA, 10 μM glycine, 1 μM TTX, 40 μM CNQX, 5 μM nimodipine dissolved in culture media and incubated for 3 min. […]
After stimulation, neurons were fixed with 4% formaldehyde and labeled with rabbit anti-phospho-p44/42 ERK antibody (Cell Signaling) and with mouse anti-MAP2 antibody (Sternberger Monoclonals). Cy3-conjugated goat anti-rabbit IgG and Cy5-conjugated goat antimouse IgG (Jackson Immunoresearch Laboratories, West Grove, Pa.) were secondary antibodies. NMDA and all antagonists were from Tocris Neuramin. BDNF was from Calbiochem. Images were acquired with an Olympus Fluoview-500 confocal microscope (40×; 1.0 NA) and quantified using Olympus Fluoview software. In each experiment, the pERK fluorescence of the cell soma was measured for 25 neurons taken from consecutive fields. Phospho-ERK fluorescence data were normalized to the values obtained in nontransfected cells after NMDA stimulation. The background fluorescence (mean fluorescence of nonstimulated neurons) was subtracted prior to normalization.

co-immunoprecipitation of NR2B and RasGRF1 [1]: completely blocked
B1: NR2B-BD: peptide of amino acids 886-1310 of the NR2B C-terminal domain that binds RasGRF1; used as NusA or EGFP fusion (protein)
chain: SPTATMNNTHSNILRLLRTAKNMANLSGVNGSPQSALDFIRRESSVYDISEHRRSFTHSDCKSYNNPPCEENLFSDYISEVERTFGNLQLKDSNVYQDHYHHHHRPHSIGSTSSIDGLYDCDNPPFTTQPRSISKKPLDIGLPSSKHSQLSDLYGKFSFKSDRYSGHDDLIRSDVSDISTHTVTYGNIEGNAAKRRKQQYKDSLKKRPASAKSRREFDEIELAYRRRPPRSPDHKRYFRDKEGLRDFYLDQFRTKENSPHWEHVDLTDIYKERSDDFKRDSVSGGGPCTNRSHLKHGTGEKHGVVGGVPAPWEKNLTNVDWEDRSGGNFCRSCPSKLHNYSSTVAGQNSGRQACIRCEACKKAGNLYDISKDNSLQELDQPAAPVAVTSNASSTKYPQSPTNSKAQKKNRNKLRRQHSYDTFVDL
modifications: left off: small tags and cut ends
notes: used as NusA or EGFP fusion
BDNF-induced ERK activation ([2]; 100 ng/ml BDNF): had no effect | NMDA-induced (NMDAR-dependent) ERK activation ([2]; 100 μM NMDA): inhibit | depolarization-induced ERK activation ([2]; 50 mM KCl): had no effect
